Laboratory results published in publication PMC12402178 (2025).

Key:
[1] = molecular target: T1, microtubules polymerised from porcine brain tubulin (GMPCPP-stabilised seeds, dynamic GDP lattice, or … (porcine, UniProt P02550 1-451, part of the tubulin labelled with Rhodamine or HiLyte 647)); part biotinylated (surface-immobilised microtubules) | part of the tubulin labelled with Rhodamine or HiLyte 647; part biotinylated …); test: FRAP, microtubule-microtubule overlap (median)
[2] = molecular target: T1, microtubules polymerised from porcine …; test: FRAP, actin-microtubule overlap (median), with actin filaments

T1 sequence (P02550 whole entry, chain 1 of 2): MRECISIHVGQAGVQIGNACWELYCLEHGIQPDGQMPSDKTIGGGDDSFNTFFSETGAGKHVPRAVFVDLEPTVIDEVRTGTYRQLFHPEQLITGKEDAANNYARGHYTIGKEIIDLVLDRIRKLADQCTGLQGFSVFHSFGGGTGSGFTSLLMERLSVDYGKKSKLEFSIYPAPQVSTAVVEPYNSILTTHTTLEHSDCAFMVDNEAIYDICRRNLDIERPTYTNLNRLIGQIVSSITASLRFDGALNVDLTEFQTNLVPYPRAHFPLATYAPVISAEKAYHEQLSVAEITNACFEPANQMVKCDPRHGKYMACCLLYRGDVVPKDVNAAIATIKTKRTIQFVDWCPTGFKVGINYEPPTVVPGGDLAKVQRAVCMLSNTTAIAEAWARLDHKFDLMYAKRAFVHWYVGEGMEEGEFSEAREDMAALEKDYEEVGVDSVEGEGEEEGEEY
T1 sequence (chain, as listed by the source, chain 2 of 2): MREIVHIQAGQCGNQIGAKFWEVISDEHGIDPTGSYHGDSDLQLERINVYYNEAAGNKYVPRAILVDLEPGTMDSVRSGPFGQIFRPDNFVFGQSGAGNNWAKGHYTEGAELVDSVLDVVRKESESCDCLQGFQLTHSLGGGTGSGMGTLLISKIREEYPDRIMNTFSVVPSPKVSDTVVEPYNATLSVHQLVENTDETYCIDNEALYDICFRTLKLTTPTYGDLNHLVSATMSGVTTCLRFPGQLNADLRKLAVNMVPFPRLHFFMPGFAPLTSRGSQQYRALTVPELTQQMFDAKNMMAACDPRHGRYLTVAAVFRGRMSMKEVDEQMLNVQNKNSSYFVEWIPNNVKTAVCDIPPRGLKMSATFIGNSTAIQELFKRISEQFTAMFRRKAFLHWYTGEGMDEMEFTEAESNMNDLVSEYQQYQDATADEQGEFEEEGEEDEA

koff [1]: 0.29 s⁻¹ | koff [2]: 0.513 s⁻¹
B1: Anillin-GFP (full-length human anillin, isoform 2, 1087 amino acids) (natural protein)
chain: MDPFTEKLLERTRARRENLQRKMAERPTAAPRSMTHAKRARQPLSEASNQQPLSGGEEKSCTKPSPSKKRCSDNTEVEVSNLENKQPVESTSAKSCSPSPVSPQVQPQAADTISDSVAVPASLLGMRRGLNSRLEATAASSVKTRMQKLAEQRRRWDNDDMTDDIPESSLFSPMPSEEKAASPPRPLLSNASATPVGRRGRLANLAATICSWEDDVNHSFAKQNSVQEQPGTACLSKFSSASGASARINSSSVKQEATFCSQRDGDASLNKALSSSADDASLVNASISSSVKATSPVKSTTSITDAKSCEGQNPELLPKTPISPLKTGVSKPIVKSTLSQTVPSKGELSREICLQSQSKDKSTTPGGTGIKPFLERFGERCQEHSKESPARSTPHRTPIITPNTKAIQERLFKQDTSSSTTHLAQQLKQERQKELACLRGRFDKGNIWSAEKGGNSKSKQLETKQETHCQSTPLKKHQGVSKTQSLPVTEKVTENQIPAKNSSTEPKEVIREIEMSVDDDDINSSKVINDLFSDVLEEGELDMEKSQEEMDQALAESSEEQEDALNISSMSLLAPLAQTVGVVSPESLVSTPRLELKDTSRSDESPKPGKFQRTRVPRAESGDSLGSEDRDLLYSIDAYRSQRFKETERPSIKQVIVRKEDVTSKLDEKNNAFPCQVNIKQKMQELNNEINMQQTVIYQASQALNCCVDEEHGKGSLEEAEAERLLLIATGKRTLLIDELNKLKNEGPQRKNKASPQSEFMPSKGSVTLSEIRLPLKADFVCSTVQKPDAANYYYLIILKAGAENMVATPLASTSNSLNGDALTFTTTFTLQDVSNDFEINIEVYSLVQKKDPSGLDKKKKTSKSKAITPKRLLTSITTKSNIHSSVMASPGGLSAVRTSNFALVGSYTLSLSSVGNTKFVLDKVPFLSSLEGHIYLKIKCQVNSSVEERGFLTIFEDVSGFGAWHRRWCVLSGNCISYWTYPDDEKRKNPIGRINLANCTSRQIEPANREFCARRNTFELITVRPQREDDRETLVSQCRDTLCVTKNWLSADTKEERDLWMQKLNQVLVDIRLWQPDACYKPIGKP
